Assay results published in the supplement of paper PMC10065799, “High-throughput profiling of sequence recognition by tyrosine kinases and SH2 domains using bacterial peptide display” (eLife, 2023).

How the values were obtained:
Grb2 SH2 = Grb2 SH2 (UniProt P62993); assay: SH2 binding enrichment of the phosphorylated peptide, bacterial display (enrichment ratio); higher = better substrate or ligand; peptides without Tyr show the background
c-Src SH2 = assay: as above
SHP2-C SH2 = assay: as above
EPHB2 = EPHB2 (UniProt P29323); assay: phosphorylation enrichment, bacterial display (enrichment ratio); higher = better substrate or ligand; peptides without Tyr show the background
EPHB1 = EPHB1 (UniProt P54762); assay: as above
FGFR3 = FGFR3 (UniProt P22607); assay: as above
MERTK = MERTK (UniProt Q12866); assay: as above
c-Src = assay: as above
c-Abl (mouse) = assay: as above
Hck = Hck (UniProt P08631); assay: as above
Jak2 = Jak2 (UniProt O60674); assay: as above
Fes = Fes (UniProt P07332); assay: as above
Fyn = Fyn (UniProt P06241); assay: as above
Fer (mouse) = assay: as above
AncSZ = assay: as above
FGFR1 = FGFR1 (UniProt P11362); assay: as above
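For SH2 binding enrichment of the phosphorylated peptide, bacterial display in this document: peptide library displayed on the E. coli surface as eCPX fusions, selected cells deep-sequenced, score is each peptide's frequency after selection divided by its frequency in the input.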
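For phosphorylation enrichment, bacterial display in this document: 11-residue human phosphosite peptides and single-mutation variants displayed on the E. coli surface, counted by deep sequencing, each peptide's frequency after selection divided by its frequency in the unselected input library; frequency after pTyr selection over input frequency; kinase dosed for 20-30% of maximal phosphorylation in three min.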

Chain of Jak2 (O60674 whole entry, looked up): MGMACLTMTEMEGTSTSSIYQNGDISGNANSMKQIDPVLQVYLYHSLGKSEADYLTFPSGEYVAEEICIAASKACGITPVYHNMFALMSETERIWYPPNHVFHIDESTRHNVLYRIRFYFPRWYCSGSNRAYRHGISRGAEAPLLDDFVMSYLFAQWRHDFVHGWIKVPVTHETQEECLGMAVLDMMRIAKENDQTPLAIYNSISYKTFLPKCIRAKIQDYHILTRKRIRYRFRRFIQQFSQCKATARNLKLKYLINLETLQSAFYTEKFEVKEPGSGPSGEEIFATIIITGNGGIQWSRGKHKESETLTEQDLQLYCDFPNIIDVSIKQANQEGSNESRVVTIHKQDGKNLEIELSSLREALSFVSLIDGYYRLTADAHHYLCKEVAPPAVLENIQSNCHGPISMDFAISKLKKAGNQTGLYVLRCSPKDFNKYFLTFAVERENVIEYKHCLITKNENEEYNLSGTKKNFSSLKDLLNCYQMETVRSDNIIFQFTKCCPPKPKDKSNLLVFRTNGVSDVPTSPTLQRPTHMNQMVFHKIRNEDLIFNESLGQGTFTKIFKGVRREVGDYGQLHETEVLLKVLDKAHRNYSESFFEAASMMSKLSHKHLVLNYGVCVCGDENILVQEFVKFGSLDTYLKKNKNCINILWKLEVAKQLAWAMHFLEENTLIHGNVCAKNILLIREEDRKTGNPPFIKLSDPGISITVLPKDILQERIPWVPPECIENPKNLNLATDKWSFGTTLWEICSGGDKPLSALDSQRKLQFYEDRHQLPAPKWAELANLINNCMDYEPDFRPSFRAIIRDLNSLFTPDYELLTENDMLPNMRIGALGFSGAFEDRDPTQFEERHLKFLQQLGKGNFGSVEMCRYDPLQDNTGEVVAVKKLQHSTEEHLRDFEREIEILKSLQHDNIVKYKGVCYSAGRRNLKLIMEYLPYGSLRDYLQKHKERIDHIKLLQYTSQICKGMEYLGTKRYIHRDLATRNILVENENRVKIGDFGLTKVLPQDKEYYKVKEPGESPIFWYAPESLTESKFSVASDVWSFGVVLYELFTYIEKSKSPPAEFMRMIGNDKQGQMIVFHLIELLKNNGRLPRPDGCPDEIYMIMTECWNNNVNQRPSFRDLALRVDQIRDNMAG
Chain of Fes (P07332 whole entry, looked up): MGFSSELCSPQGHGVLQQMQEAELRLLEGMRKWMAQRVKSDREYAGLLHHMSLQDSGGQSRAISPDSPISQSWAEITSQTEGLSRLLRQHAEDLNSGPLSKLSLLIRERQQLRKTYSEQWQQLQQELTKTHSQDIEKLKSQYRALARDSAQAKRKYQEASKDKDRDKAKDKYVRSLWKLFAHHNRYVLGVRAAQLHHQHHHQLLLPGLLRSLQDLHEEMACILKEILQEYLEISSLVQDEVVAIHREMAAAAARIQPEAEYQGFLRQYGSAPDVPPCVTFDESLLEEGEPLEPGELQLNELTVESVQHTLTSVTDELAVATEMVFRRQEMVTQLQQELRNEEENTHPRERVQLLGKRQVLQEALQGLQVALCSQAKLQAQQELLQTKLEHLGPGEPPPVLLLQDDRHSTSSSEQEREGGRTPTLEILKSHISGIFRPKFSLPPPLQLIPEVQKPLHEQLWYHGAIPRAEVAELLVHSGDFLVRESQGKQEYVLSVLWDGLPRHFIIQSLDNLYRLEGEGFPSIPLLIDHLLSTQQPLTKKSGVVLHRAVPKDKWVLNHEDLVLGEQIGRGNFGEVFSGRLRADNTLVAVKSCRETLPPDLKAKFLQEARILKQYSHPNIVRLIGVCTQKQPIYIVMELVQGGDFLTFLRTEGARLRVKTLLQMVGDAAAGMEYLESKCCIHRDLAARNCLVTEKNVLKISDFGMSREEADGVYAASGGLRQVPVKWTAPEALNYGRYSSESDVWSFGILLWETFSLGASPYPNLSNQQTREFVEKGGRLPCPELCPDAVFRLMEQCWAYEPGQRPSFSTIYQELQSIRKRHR
Chain of Fyn (P06241 whole entry, looked up): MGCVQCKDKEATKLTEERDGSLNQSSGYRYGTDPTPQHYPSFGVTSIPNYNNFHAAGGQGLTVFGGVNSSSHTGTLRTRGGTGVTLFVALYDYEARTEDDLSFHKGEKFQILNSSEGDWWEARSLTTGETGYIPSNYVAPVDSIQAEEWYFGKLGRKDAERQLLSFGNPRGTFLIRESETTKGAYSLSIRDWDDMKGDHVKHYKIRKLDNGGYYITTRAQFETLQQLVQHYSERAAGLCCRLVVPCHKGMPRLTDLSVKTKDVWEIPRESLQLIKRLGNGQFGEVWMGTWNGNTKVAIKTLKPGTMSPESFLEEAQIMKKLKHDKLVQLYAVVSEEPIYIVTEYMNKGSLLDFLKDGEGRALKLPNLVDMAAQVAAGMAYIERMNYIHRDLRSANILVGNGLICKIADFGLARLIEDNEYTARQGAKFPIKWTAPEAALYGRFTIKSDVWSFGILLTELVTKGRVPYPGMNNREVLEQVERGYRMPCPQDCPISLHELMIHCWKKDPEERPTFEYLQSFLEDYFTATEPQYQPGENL
Chain of EPHB1 (P54762 whole entry, looked up): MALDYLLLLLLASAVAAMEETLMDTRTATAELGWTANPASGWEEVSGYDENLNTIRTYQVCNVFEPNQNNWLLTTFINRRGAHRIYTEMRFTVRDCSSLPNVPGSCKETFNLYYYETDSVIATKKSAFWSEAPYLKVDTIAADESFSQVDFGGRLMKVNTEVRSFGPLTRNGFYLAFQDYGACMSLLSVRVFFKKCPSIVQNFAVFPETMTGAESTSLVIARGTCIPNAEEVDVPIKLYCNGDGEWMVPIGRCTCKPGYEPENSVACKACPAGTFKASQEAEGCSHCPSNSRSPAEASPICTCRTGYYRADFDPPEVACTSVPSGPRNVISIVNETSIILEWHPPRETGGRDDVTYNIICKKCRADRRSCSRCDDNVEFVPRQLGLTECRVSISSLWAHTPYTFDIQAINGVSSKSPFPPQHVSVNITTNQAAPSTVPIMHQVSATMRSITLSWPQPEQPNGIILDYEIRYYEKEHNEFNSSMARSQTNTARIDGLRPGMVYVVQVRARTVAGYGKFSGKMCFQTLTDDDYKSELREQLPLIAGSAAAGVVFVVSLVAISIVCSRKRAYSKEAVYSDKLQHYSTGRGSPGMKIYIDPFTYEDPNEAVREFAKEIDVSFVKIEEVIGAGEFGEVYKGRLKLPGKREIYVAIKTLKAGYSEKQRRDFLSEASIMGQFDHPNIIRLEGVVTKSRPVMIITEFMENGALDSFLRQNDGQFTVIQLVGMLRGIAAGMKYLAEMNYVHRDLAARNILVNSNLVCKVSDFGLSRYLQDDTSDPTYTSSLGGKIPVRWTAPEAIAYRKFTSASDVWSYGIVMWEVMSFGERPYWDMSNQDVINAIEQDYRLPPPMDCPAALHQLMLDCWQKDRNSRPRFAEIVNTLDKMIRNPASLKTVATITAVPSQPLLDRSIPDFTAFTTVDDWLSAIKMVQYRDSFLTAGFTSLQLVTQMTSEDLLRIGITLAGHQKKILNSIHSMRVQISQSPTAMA
Chain of FGFR3 (P22607 whole entry, looked up): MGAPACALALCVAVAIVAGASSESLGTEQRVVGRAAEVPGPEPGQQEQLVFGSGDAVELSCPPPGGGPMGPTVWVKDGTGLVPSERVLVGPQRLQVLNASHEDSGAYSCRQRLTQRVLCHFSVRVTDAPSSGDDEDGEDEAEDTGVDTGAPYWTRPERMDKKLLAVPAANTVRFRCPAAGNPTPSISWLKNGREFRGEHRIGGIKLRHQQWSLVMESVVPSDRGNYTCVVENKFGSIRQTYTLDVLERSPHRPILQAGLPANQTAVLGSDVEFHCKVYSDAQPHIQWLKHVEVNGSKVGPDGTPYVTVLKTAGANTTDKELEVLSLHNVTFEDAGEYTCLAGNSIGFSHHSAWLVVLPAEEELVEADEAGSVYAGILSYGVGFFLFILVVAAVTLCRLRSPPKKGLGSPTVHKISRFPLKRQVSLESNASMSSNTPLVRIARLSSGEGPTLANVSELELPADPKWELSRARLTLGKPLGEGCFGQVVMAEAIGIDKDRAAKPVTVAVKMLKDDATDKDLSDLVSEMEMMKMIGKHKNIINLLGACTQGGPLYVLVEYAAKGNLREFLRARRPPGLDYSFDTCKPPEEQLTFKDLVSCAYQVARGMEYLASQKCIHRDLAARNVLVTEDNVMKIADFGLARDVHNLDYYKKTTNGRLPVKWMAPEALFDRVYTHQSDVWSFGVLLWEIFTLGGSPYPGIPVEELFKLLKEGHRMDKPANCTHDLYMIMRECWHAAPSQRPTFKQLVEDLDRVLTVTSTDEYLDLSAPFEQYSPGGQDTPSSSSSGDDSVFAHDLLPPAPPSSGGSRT
Chain of Grb2 SH2 (P62993 whole entry, looked up): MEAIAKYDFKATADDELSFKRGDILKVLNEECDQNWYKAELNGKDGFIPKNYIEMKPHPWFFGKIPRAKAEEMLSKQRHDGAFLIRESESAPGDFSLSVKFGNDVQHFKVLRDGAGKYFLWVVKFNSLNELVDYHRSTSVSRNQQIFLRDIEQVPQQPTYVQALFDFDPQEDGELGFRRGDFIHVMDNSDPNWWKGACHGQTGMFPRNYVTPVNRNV
Chain of Hck (P08631 whole entry, looked up): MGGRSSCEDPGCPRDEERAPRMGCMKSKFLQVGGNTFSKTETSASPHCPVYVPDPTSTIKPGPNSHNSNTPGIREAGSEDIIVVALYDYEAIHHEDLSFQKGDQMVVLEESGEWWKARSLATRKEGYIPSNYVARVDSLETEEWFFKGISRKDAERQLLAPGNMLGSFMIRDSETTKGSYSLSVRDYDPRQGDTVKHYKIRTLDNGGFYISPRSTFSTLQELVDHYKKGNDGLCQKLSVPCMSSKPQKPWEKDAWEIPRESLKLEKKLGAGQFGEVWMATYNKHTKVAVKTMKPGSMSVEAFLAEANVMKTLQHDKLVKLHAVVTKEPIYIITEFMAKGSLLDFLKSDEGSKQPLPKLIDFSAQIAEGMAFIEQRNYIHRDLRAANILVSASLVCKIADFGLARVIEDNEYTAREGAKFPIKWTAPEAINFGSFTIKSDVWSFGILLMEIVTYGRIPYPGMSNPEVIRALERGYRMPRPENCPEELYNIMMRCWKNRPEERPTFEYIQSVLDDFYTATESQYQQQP

| Sequence | SH2 binding enrichment (Grb2 SH2) | SH2 binding enrichment (c-Src SH2) | SH2 binding enrichment (SHP2-C SH2) | phosphorylation enrichment (EPHB2) | phosphorylation enrichment (EPHB1) | phosphorylation enrichment (FGFR3) | phosphorylation enrichment (MERTK) | phosphorylation enrichment (c-Src) | phosphorylation enrichment (c-Abl (mouse)) | phosphorylation enrichment (Hck) | phosphorylation enrichment (Jak2) | phosphorylation enrichment (Fes) | phosphorylation enrichment (Fyn) | phosphorylation enrichment (Fer (mouse)) | phosphorylation enrichment (AncSZ) | phosphorylation enrichment (FGFR1) |
| --- | --- | --- | --- | --- | --- | --- | --- | --- | --- | --- | --- | --- | --- | --- | --- | --- |
| EQKKYYNATKK [SCN5A_Y1495_M1498T] | 1.16 | 0.731 | 1.04 | 0.383 | 0.399 | 0.387 | 0.371 | 0.411 | 0.485 | 0.384 | 0.503 | 0.54 | 0.375 | 0.407 | 0.478 | 0.343 |
| EQMLEYMGQLQ [CFAP45_Y289_E291G] | 0.794 | 0.42 | 0.553 | 0.493 | 0.436 | 0.595 | 0.448 | 0.505 | 0.762 | 0.507 | 0.873 | 1.01 | 0.542 | 0.427 | 0.913 | 0.447 |
| ERSMSYCDESR [SMG1_Y143_S144C] | 0.951 | 0.644 | 1.28 | 0.496 | 0.435 | 0.551 | 0.43 | 0.491 | 0.704 | 0.402 | 0.728 | 0.77 | 0.422 | 0.474 | 0.788 | 0.475 |
| ERWLKYFPNEQ [HS3ST5_Y244_I247N] | 0.95 | 0.707 | 1.24 | 0.584 | 0.664 | 0.632 | 0.38 | 0.419 | 0.518 | 0.482 | 0.927 | 1.12 | 0.62 | 0.459 | 1.09 | 0.438 |
| ESMQSYDLDYP [UNC13B_Y243_D238E] | 0.681 | 0.851 | 0.538 | 0.534 | 0.651 | 0.686 | 0.466 | 0.544 | 0.933 | 0.615 | 0.991 | 1.26 | 0.536 | 0.495 | 1.16 | 0.698 |
| ESPGLYGFLNV [BCR_Y910] | 0.822 | 0.479 | 0.598 | 0.574 | 0.586 | 0.646 | 1.05 | 1.23 | 0.717 | 2.24 | 0.922 | 1.1 | 1.48 | 1.23 | 1.09 | 0.527 |
| ESVNTYLQTSP [NAT1_Y208_M205V] | 0.762 | 0.395 | 0.527 | 0.838 | 0.538 | 0.577 | 0.588 | 0.589 | 0.655 | 0.556 | 0.799 | 0.887 | 0.441 | 0.49 | 0.874 | 0.386 |
| EVDETYVPKEF [ALB_Y521] | 0.881 | 0.498 | 0.651 | 0.64 | 0.613 | 0.791 | 0.491 | 0.595 | 0.889 | 0.668 | 1.19 | 1.58 | 0.517 | 0.605 | 1.22 | 0.589 |
| EVEFQYPFRLH [SYP_Y73_E72Q] | 0.913 | 0.489 | 0.462 | 0.498 | 0.64 | 0.709 | 0.443 | 0.506 | 0.885 | 0.473 | 1.1 | 1.23 | 0.445 | 0.524 | 1.03 | 0.475 |
